Assay results reported in the nanobody polyreactivity screen of Harvey et al. (2022).

Assay: yeast display, Sf9 membrane polyspecificity reagent, FACS + sequencing; frameworks hold sequencing errors
Method in brief: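 A synthetic nanobody library was expressed on Saccharomyces cerevisiae BJ5465 by galactose induction for 36–48 hours. The library was stained for 1 hour at 4 °C with 10% biotinylated, detergent-solubilized Sf9 membrane reagent and enriched with streptavidin microbeads before FACS. Low and high (top ~1%) gates were set on anti-HA fluorescence for expression and streptavidin fluorescence for reagent binding, and each polyreactivity label reflects the gate of origin.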

Sequence: QVQLVESGGGLVQAGGSLRLSCAASGLTFVAYAMGWYRQAPGKERELVASISSRTGGTSYADSVKGRFTISRDNAKNTVYLQMNSLKPEDTAVYYCNAAARRYTSVFYTSGYTFDYWGQGTQVTVSS
- polyreactivity (PSR sort gate): low polyreactivity

Sequence: QVQLVESGGGLVQAGGSLRLSCAASGLTFVFYAMGWYRQAPGKERELVAAISWSTGRTYYADSVKGRFTISRDNAKNTVYLQMNSLKPEGTAVYYCAASYLGRKYDYWGQGTQVTVSS
- polyreactivity (PSR sort gate): high polyreactivity

Sequence: QVQLVESGGGLVQAGGSLRLSCAASGLTFVKNVMGWYRQAPGKERELVAAISRRGGSTYSADSVKGRFTISRDNAKNTVYLQMNSLQPADTAVYYCAARTPSPTRPQYYYWGQGTQVTVSS
- polyreactivity (PSR sort gate): high polyreactivity

Sequence: QVQLVESGGGLVQAGGSLRLSCAASGLTFVLYAMGWYRQAPGKERELVAAISKRGGSTNYADSVKGRFTISRDIAKNTVYLQMNSLKPEDTAVYYCAARYPQGGTGKATYVRSRSGYWGQGTKVTVSS
- polyreactivity (PSR sort gate): high polyreactivity

Sequence: QVQLVESGGGLVQAGGSLRLSCAASGLTFVLYAMGWYRQAPGQERELVAAISKRGGSTNYADSVKGRFTISRDNAKNTVYLQMNSLKPADTAVYYCAPRYPQGGTGKATYVRSRSGYWGQGTQVTVSS
- polyreactivity (PSR sort gate): high polyreactivity

Sequence: QVQLVESGGGLVQAGGSLRLSCAASGLTFVPNAMGWYRQAPGKERELFAAISNNGGRTYYADSVKGRFTISRDNAKNTVYLQMNSLKPEDTAVYYCANYLSPGERHSYDYWGQGTKVTVSS
- polyreactivity (PSR sort gate): high polyreactivity

Sequence: QVQLVESGGGLVQAGGSLRLSCAASGLTFVRYTMGWYRQAPGKERELVADISSVGSTYYADSVKGRFTISRDNAKNTVYLQMNSLKPQDTAVYYCNTSYIIWYDSWGQGTQVTVSS
- polyreactivity (PSR sort gate): low polyreactivity

Sequence: QVQLVESGGGLVQAGGSLRLSCAASGLTFVWYAMGWYIQAPGKERELVAGITSGGRTYYADSVKGRFTISRDNAKNTVYLQMISLKPEDTGVYDCNAVVRWGYGYDYWGQGTQVTVSS
- polyreactivity (PSR sort gate): high polyreactivity

Sequence: QVQLVESGGGLVQAGGSLRLSCAASGLTFVWYAMGWYRQAPGKERELVAAIRGGGSTYYADSVKGRFTISRDNAKNTVYLQMNSLKPEDTAVYYCNARYYGAHSPYRFDYWGQGTQVTVSS
- polyreactivity (PSR sort gate): high polyreactivity

Sequence: QVQLVESGGGLVQAGGSLRLSCAASGLTFVWYGKGWYRQATGKERELVAAITRGGSTYYADSVKGRFTISRDNAKNTVYLQMKSLKPEDTAVYYCAARRLERRVRPGYYPYDYWVQGTQVTVSS
- polyreactivity (PSR sort gate): high polyreactivity

Sequence: QVQLVESGGGLVQAGGSLRLSCAASGLTFVWYGMGWYRQAPGKERELVAAITRGGSTYYADSVKGRFTISRDNAKNTVYLQMNSLKPEDTAVYYCAARYKYTGYDYWGQGTQVTVSS
- polyreactivity (PSR sort gate): high polyreactivity

Sequence: QVQLVESGGGLVQAGGSLRLSCAASGLTFVWYSMGWYRHAPGKERELVAGITSGGRTYYADSVKGRFTISRDNAKNTVYLQMNRLKPEDTAVYYCAAYGNYNEYDSWGQGTQVSVSS
- polyreactivity (PSR sort gate): high polyreactivity

Sequence: QVQLVESGGGLVQAGGSLRLSCAASGLTFVYNAMGWYRQATGKERELVAAISRVGSTNYADSVKGRFTISRDNAKYTVYLQLNSLKPADTAVYYCNKGNAYVVYTSGYDYWGQGTQVTVSS
- polyreactivity (PSR sort gate): low polyreactivity

Sequence: QVQLVESGGGLVQAGGSLRLSCAASGLTFVYYVLGWYRQAPGKESELVAAITDGGSTYYADSVKGRFTISRDNAKNTVYLQMNSRKPEDTAVYYCAADYYWLYGRWGVDYWGQGTQVTVSS
- polyreactivity (PSR sort gate): high polyreactivity

Sequence: QVQLVESGGGLVQAGGSLRLSCAASGLTFWANTMGWYRQAPGKERELVAAITWSGGSTYYADSVKGRFTISRDNAKNTFYLQMNSLKPEDNAVYYCAAEEFFSAGYSYYYWGQGTQVTVSS
- polyreactivity (PSR sort gate): low polyreactivity

Sequence: QVQLVESGGGLVQAGGSLRLSCAASGLTFWAYAMGWYRQEPGKEREFVAAISWSVDSTYYADSVKGRFTISRDNAKNTVYLQMNSLKPEDTAVYYCAAEWYYVYIAPYRYYYRGQGTQVTVSS
- polyreactivity (PSR sort gate): low polyreactivity

Sequence: QVQLVESGGGLVQAGGSLRLSCAASGLTFWFNAMGWYRQAHGKEREFVAAISLSSTYYADSVKGRFTISRDNAKNTVYLQMNSLKPEDTAVYYCAAELSVSLYDFDYWGQGTQETVSS
- polyreactivity (PSR sort gate): high polyreactivity

Sequence: QVQLVESGGGLVQAGGSLRLSCAASGLTFWPYAMGWYRQAPGKERELVAAISSSGRTYYADSVKGRFTISRDNAKNTVYLQMNSLKPEDTAVYYCARRFWFHYYGYDYWGQGTQVTVSS
- polyreactivity (PSR sort gate): high polyreactivity

Sequence: QVQLVESGGGLVQAGGSLRLSCAASGLTFWRYAMGWYRQAPGKERELVAGISSSTGSTYYADSVKGRFTISRDNAKNTVYLQMNSLKPEDTAVYYCNAYVRRIVRSYYWGQGTQVTVSS
- polyreactivity (PSR sort gate): high polyreactivity

Sequence: QVQLVESGGGLVQAGGSLRLSCAASGLTFWYYAMGWYRQAPGKERELVAAIDWSGASTYYADSVKGRFTISRDNAKNTVYLQMYSLKPEDTAVYYCNTVYYIGDDYWGQGTQVTVSS
- polyreactivity (PSR sort gate): high polyreactivity

Sequence: QVQLVESGGGLVQAGGSLRLSCAASGLTFWYYDMGWYRQAPGKERELVAAISRCGGTTYYADSVKGRFTISRDNAKNSVYLQMNSLKPEDTAVYYCAAVSFGFWVTEYYYWGQGTQVNVSS
- polyreactivity (PSR sort gate): high polyreactivity
